Measured values reported in patent US20210379110A1 (LENTIGEN TECHNOLOGY, published 2021).

Experiments:
[1] = biological target: T1, TSLPR-Fc peptide (R&D systems) (UniProt Q9HC73 25-231); assay: flow cytometry, CAR T cells stained with TSLPR-Fc then anti-Fc AF647
T1 construct: Bought reagent (R&D systems); also called TSLPR-Fc reagent; not shown: Fc part of the bought reagent
T1 sequence (looked up): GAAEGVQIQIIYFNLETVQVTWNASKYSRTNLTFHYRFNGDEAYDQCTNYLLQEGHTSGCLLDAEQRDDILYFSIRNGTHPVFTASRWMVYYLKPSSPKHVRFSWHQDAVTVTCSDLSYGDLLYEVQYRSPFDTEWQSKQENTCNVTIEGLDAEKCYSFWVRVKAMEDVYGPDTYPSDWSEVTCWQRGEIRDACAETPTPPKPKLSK
Protocol: Flow cytometric analysis was performed to detect the CAR molecule surface expression. Half million of harvested primary T cells were washed and stained with cold AutoMACS buffer supplemented with 0.5% bovine serum albumin (Miltenyi Biotec, Bergisch Gladbach, Germany), and resuspended in 200 ul Running Buffer before acquired by MACSQuant®10 Analyzer (Miltenyi Biotec Bergisch Gladbach, Germany). For CAR surface expression, TSLPR Fc, CD19Fc and CD22Fc peptide (R&D systems, Minneapolis, Minn.) were used followed anti Fc-AF647 (Jackson ImmunoResearch, West Grove, Pa.). T cell subtypes was further identified with anti-CD4 antibody conjugated to VioBlue fluorophore (Miltenyi Biotec Bergisch Gladbach, Germany). Dead cells in all studies were excluded by 7AAD staining (BD Biosciences, San Jose, Calif.). Flow data were analyzed with MACSQuantify software.
Specific detection of each scFv domain within the CAR structure was facilitated by CAR T cell staining with TSLPR-Fc peptide, or CD19-Fc peptide, followed by a secondary staining with anti-Fc AF647-labeled reagent, and fluorescence was detected in the APC channel. In CAR construct D0101, in which CD19 scFv was membrane-proximal and the TSLPR scFv was membrane-distal, the TSLPR scFv was detected at 44% of the transduced cells, and CD19 scFv was detected at 31%. In CAR construct D0102 with the reverse binder orientation (i.e. the TSLPR scFv membrane-proximal, and CD19 scFv membrane-distal), the detection levels were 85% and 75% for scFv TSLPR and CD19, respectively (FIG. 2).

[2] = biological target: T2, CD22-Fc peptide (R&D systems) (UniProt P20273 20-687); assay: flow cytometry, CAR T cells stained with CD22-Fc then anti-Fc AF647
T2 construct: Bought reagent (R&D systems); not shown: Fc part of the bought reagent
T2 sequence (looked up): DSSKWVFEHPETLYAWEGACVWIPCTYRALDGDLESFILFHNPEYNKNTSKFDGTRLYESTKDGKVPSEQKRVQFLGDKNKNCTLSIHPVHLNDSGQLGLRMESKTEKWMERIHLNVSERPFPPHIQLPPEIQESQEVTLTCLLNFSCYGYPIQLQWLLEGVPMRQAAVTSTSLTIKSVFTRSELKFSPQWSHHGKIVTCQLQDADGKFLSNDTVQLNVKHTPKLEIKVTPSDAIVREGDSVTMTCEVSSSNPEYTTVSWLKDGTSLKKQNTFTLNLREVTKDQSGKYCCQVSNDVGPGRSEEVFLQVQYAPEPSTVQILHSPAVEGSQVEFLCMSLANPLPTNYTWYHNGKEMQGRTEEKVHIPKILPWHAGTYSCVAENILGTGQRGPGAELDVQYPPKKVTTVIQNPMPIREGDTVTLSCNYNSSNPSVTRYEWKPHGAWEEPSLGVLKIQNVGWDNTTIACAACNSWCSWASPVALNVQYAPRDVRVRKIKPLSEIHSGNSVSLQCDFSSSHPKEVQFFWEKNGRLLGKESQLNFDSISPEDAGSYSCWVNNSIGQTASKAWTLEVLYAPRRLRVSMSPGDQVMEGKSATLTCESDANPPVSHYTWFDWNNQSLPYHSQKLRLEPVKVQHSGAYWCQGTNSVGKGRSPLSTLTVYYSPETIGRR
Protocol: For CAR surface expression, TSLPR Fc, CD19Fc and CD22Fc peptide (R&D systems, Minneapolis, Minn.) were used followed anti Fc-AF647 (Jackson ImmunoResearch, West Grove, Pa.). T cell subtypes was further identified with anti-CD4 antibody conjugated to VioBlue fluorophore (Miltenyi Biotec Bergisch Gladbach, Germany). Dead cells in all studies were excluded by 7AAD staining (BD Biosciences, San Jose, Calif.). Flow data were analyzed with MACSQuantify software.
To develop the tandem CD22 and TSLPR targeting CARs, CD22-directed scFv 16P17 was used in either membrane-proximal or membrane-distal orientation (construct D0103 and D0104, respectively). For TSLPR-targeting, scFv 3G11 was used. Surface expression of the tandem TSLPR×CD22 CAR incorporating the human ScFv 16P17 together with the TSLPR scFv 3G11, when the TSLPR scFv is positioned in the membrane-distal orientation (D0103), or in the membrane-proximal orientation (D0104) is shown in FIG. 5. Specific detection of each scFv domain within the CAR structure was facilitated by CAR T cell staining with TSLPR-Fc peptide, or CD22-Fc peptide, followed by a secondary staining with anti-Fc AF647-labeled reagent, and detected in the APC channel by flow cytometry. In CAR construct D0103, in which CD22 scFv was membrane-proximal and the TSLPR scFv was membrane-distal, the TSLPR scFv was detected at 26% of the transduced cells, and CD22 scFv was detected at 11%. In CAR construct D0104 with the opposite binder orientation (i.e. the CD22 scFv was membrane-distal, and the TSLPR scFv was membrane-proximal), the detection levels were 75% and 39% for scFv TSLPR and CD22, respectively (FIG. 5).
The surface expression of the tandem TSLPR×CD22 CAR incorporating the human ScFv m971 in membrane-proximal orientation (D0111), and in the membrane-distal orientation (D0112) is shown in FIG. 8. Specific detection of each scFv domain within the CAR structure was facilitated by CAR T cell staining with TSLPR-Fc peptide, or CD22-Fc peptide, followed by a secondary staining with anti-Fc AF647-labeled reagent and detection in the APC channel by flow cytometry. In CAR construct D0111, in which CD22 scFv was membrane-proximal and the TSLPR scFv was membrane-distal, the TSLPR scFv was detected at 34% of the transduced cells, and CD22 scFv was detected at 11%.

B1: D0102 (EF-1a-CD19 (19217_1)-TSLPR CD8 BBz) (other)
chain: EVQLVQSGAEVKKPGASVKVSCKASGYTFTSYYMHWVRQAPGQGLEWMGLINPSGGSTSYAQKFQGRVTMTRDTSTSTVYMELSSLRSEDTAVYYCARSDRGITATDAFDIWGQGTMVTVSSGGGGSGGGGSGGGGSQSVLTQPPSVSVAPGRMAKITCGGSDIGNKNVHWYQQKPGQAPVLVVYDDYDRPSGIPERFSGSNSGDAATLTISTVEVGDEADYFCQVWDGSGDPYWMFGGGTQLTVLGGGGGSGGGGSGGGGSGGGGSGGGGSQVTLKESGPGILKPSQTLSLTCSFSGFSLSTSGMGVGWIRQPSGKGLEWLAHIWWDDDKYYNPSLKSQLTISKDTSRNQVFLKITSVDTADTATYYCSRRPRGTMDAMDYWGQGTSVTVSSGGGGSGGGGSGGGGSDIVMTQAASSLSASLGDRVTISCRASQDISKYLNWYQQKPDGTVKLLIYYTSRLHSGVPSRFSGSGSGTDYSLTIRNLEQEDIATYFCQQVYTLPWTFGGGTKLEIKAAATTTPAPRPPTPAPTIASQPLSLRPEACRPAAGGAVHTRGLDFACDIYIWAPLAGTCGVLLLSLVITLYCKRGRKKLLYIFKQPFMRPVQTTQEEDGCSCRFPEEEEGGCELRVKFSRSADAPAYQQGQNQLYNELNLGRREEYDVLDKRRGRDPEMGGKPRRKNPQEGLYNELQKDKMAEAYSEIGMKGERRRGKGHDGLYQGLSTATKDTYDALHMQALPPR
notes: also called CAR 19-TSLPR BBz; tandem D0102 CD19×TSLPR CAR
- percent of transduced T cells stained by antigen-Fc [1]: 85%

B2: D0101 (EF-1a-TSLPR-CD19 (19217_1) CD8 BBz) (other)
chain: QVTLKESGPGILKPSQTLSLTCSFSGFSLSTSGMGVGWIRQPSGKGLEWLAHIWWDDDKYYNPSLKSQLTISKDTSRNQVFLKITSVDTADTATYYCSRRPRGTMDAMDYWGQGTSVTVSSGGGGSGGGGSGGGGSDIVMTQAASSLSASLGDRVTISCRASQDISKYLNWYQQKPDGTVKLLIYYTSRLHSGVPSRFSGSGSGTDYSLTIRNLEQEDIATYFCQQVYTLPWTFGGGTKLEIKGGGGSGGGGSGGGGSGGGGSGGGGSEVQLVQSGAEVKKPGASVKVSCKASGYTFTSYYMHWVRQAPGQGLEWMGLINPSGGSTSYAQKFQGRVTMTRDTSTSTVYMELSSLRSEDTAVYYCARSDRGITATDAFDIWGQGTMVTVSSGGGGSGGGGSGGGGSQSVLTQPPSVSVAPGRMAKITCGGSDIGNKNVHWYQQKPGQAPVLVVYDDYDRPSGIPERFSGSNSGDAATLTISTVEVGDEADYFCQVWDGSGDPYWMFGGGTQLTVLGAAATTTPAPRPPTPAPTIASQPLSLRPEACRPAAGGAVHTRGLDFACDIYIWAPLAGTCGVLLLSLVITLYCKRGRKKLLYIFKQPFMRPVQTTQEEDGCSCRFPEEEEGGCELRVKFSRSADAPAYQQGQNQLYNELNLGRREEYDVLDKRRGRDPEMGGKPRRKNPQEGLYNELQKDKMAEAYSEIGMKGERRRGKGHDGLYQGLSTATKDTYDALHMQALPPR
notes: also called CAR TSLPR-19 BBz; tandem D0101 TSLPR×CD19 CAR
- percent of transduced T cells stained by antigen-Fc [1]: 44%

B3: D0104 (EF-1a-CD22 (16P17)-TSLPR CD8 BBz) (other)
chain: QVQLQQSGPGLVKHSQTLSLTCAISGDSVSSNSAAWNWIRQSPSRGLEWLGRTYYRSKWYNDYAVSVKSRITINPDTSKNQFSLQLNSVTPEDTAVYYCAQEVEPHDAFDIWGQGTMVTVSSGGGGSGGGGSGGGGSDIQMTQSPSSVYASVGDKVTITCRASQDVSGWLAWYQQKPGLAPQLLISGASTLQGEVPSRFSGSGSGTDFTLTISSLQPEDFATYYCQQAKYFPYTFGQGTKLEIKGGGGSGGGGSGGGGSGGGGSGGGGSQVTLKESGPGILKPSQTLSLTCSFSGFSLSTSGMGVGWIRQPSGKGLEWLAHIWWDDDKYYNPSLKSQLTISKDTSRNQVFLKITSVDTADTATYYCSRRPRGTMDAMDYWGQGTSVTVSSGGGGSGGGGSGGGGSDIVMTQAASSLSASLGDRVTISCRASQDISKYLNWYQQKPDGTVKLLIYYTSRLHSGVPSRFSGSGSGTDYSLTIRNLEQEDIATYFCQQVYTLPWTFGGGTKLEIKAAATTTPAPRPPTPAPTIASQPLSLRPEACRPAAGGAVHTRGLDFACDIYIWAPLAGTCGVLLLSLVITLYCKRGRKKLLYIFKQPFMRPVQTTQEEDGCSCRFPEEEEGGCELRVKFSRSADAPAYQQGQNQLYNELNLGRREEYDVLDKRRGRDPEMGGKPRRKNPQEGLYNELQKDKMAEAYSEIGMKGERRRGKGHDGLYQGLSTATKDTYDALHMQALPPR
notes: Tandem chimeric antigen receptor on human primary T cells: leader, CD22 scFv 16P17 (membrane-distal), (GGGGS)5, TSLPR scFv 3G11, CD8 hinge/TM, 4-1BB, CD3 zeta; also called CAR 22-TSLPR BBz; tandem D0104 CD22×TSLPR CAR
- percent of transduced T cells stained by antigen-Fc [2]: 39%
- percent of transduced T cells stained by antigen-Fc [1]: 75%

B4: D0103 (EF-1a-TSLPR-CD22 (16P17) CD8 BBz) (other)
chain: QVTLKESGPGILKPSQTLSLTCSFSGFSLSTSGMGVGWIRQPSGKGLEWLAHIWWDDDKYYNPSLKSQLTISKDTSRNQVFLKITSVDTADTATYYCSRRPRGTMDAMDYWGQGTSVTVSSGGGGSGGGGSGGGGSDIVMTQAASSLSASLGDRVTISCRASQDISKYLNWYQQKPDGTVKLLIYYTSRLHSGVPSRFSGSGSGTDYSLTIRNLEQEDIATYFCQQVYTLPWTFGGGTKLEIKGGGGSGGGGSGGGGSGGGGSGGGGSQVQLQQSGPGLVKHSQTLSLTCAISGDSVSSNSAAWNWIRQSPSRGLEWLGRTYYRSKWYNDYAVSVKSRITINPDTSKNQFSLQLNSVTPEDTAVYYCAQEVEPHDAFDIWGQGTMVTVSSGGGGSGGGGSGGGGSDIQMTQSPSSVYASVGDKVTITCRASQDVSGWLAWYQQKPGLAPQLLISGASTLQGEVPSRFSGSGSGTDFTLTISSLQPEDFATYYCQQAKYFPYTFGQGTKLEIKAAATTTPAPRPPTPAPTIASQPLSLRPEACRPAAGGAVHTRGLDFACDIYIWAPLAGTCGVLLLSLVITLYCKRGRKKLLYIFKQPFMRPVQTTQEEDGCSCRFPEEEEGGCELRVKFSRSADAPAYQQGQNQLYNELNLGRREEYDVLDKRRGRDPEMGGKPRRKNPQEGLYNELQKDKMAEAYSEIGMKGERRRGKGHDGLYQGLSTATKDTYDALHMQALPPR
notes: Tandem chimeric antigen receptor on human primary T cells: leader, TSLPR scFv 3G11 (membrane-distal), (GGGGS)5, CD22 scFv 16P17, CD8 hinge/TM, 4-1BB, CD3 zeta; also called CAR TSLPR-22 BBz; tandem D0103 TSLPR×CD22 CAR
- percent of transduced T cells stained by antigen-Fc [2]: 11%
- percent of transduced T cells stained by antigen-Fc [1]: 26%
